Assays:
[1] = molecular target: WIV1-CoV RBD homotrimer (RBD appended onto a cystine-stabilized, hyperglycosylated GCN4 trimerization tag) (WIV1-CoV); assay: SDS-PAGE under non-reducing conditions
[2] = molecular target: SARS-CoV RBD homotrimer (RBD appended onto a cystine-stabilized, hyperglycosylated GCN4 trimerization tag) (SARS-CoV) (UniProt P59594); assay: SDS-PAGE under non-reducing conditions

Substance | stoichiometry N [1] | stoichiometry N [2]
WIV1-CoV RBD homotrimer (RBD appended onto a cystine-stabilized, hyperglycosylated GCN4 trimerization tag) | 3 | –
SARS-CoV RBD homotrimer (RBD appended onto a cystine-stabilized, hyperglycosylated GCN4 trimerization tag) (from UniProt P59594) | – | 3

Reference: article doi:10.1101/2020.12.07.415216
